The results in this text go back to US20200109207A1 (CELLDEX THERAPEUTICS, published 2020).

In assay [1] the target is T1, recombinant human CD27-FLAG-HIS (human, UniProt P26842 20-191).
T1 sequence: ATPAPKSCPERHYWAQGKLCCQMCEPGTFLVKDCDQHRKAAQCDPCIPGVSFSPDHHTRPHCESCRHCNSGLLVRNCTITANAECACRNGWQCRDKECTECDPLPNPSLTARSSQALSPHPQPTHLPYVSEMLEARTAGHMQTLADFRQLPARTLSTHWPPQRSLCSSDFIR
As to the kind of experiment: bifunctional ELISA generally as in Example 16 (CD27-FLAG-HIS coated, PD-L1-msFc detected). How it is done: Binding of bispecific constructs to CD27 and PD-L1 was assessed using a bifunctional ELISA. Antibody AbX is a known anti-PD-L1 monoclonal antibody. In brief, a microtiter plate was coated with human CD27-FLAG-HIS. Dilutions of the bispecific constructs were allowed to bind before adding human PD-L1-msFc that was detected with an HRP labeled goat anti-mouse IgG (Fc specific) antibody.
For orientation: ELISA stands for enzyme-linked immunosorbent assay.

The target of assay [2] is T1, recombinant human CD27-FLAG-HIS. The assay can be described thus: ELISA, plate coated with recombinant human CD27-FLAG-HIS. How it is done:
Microtiter plates were coated with recombinant human CD27-FLAG-HIS in PBS, and then blocked with 5% bovine serum albumin in PBS. Protein A purified human monoclonal antibodies were added at various concentrations and incubated at 37° C. The plates were washed with PBS/Tween and then incubated with a goat-anti-human IgG Fc-specific polyclonal reagent conjugated to horseradish peroxidase at 37° C. After washing, the plates were developed with HRP substrate, and analyzed at OD 450-650 nm using a microtiter plate reader.

Assay [3] addresses T2, human CD27 on the cell surface (Ramos cells, human CD3+ T cells, CD27 reporter cell line) (human, UniProt P26842 20-260).
T2 construct: also called CD27 on cells
T2 sequence: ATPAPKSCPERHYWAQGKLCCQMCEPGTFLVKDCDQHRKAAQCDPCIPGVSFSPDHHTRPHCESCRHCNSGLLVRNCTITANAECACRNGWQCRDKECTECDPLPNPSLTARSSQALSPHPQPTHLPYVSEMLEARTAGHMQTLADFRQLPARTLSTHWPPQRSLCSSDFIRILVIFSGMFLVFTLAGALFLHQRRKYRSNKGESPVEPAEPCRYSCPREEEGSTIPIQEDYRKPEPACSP
As to the kind of experiment: flow cytometry, Ramos cells expressing human CD27, antibody 3 µg/ml. How it is done:
Antibodies were tested for binding to a human cell line expressing human CD27 on their surface. Protein A purified human monoclonal antibodies (3 μg/ml) were incubated with Ramos cells expressing human CD27 at room temperature on a plate shaker. After 20 minutes, the cells were washed with PBS containing 0.1% BSA and 0.05% NaN₃ (PBA) and the bound antibodies were detected by incubating the cells with a PE labeled goat anti-human IgG Fc-specific probe. The excess probe was washed from the cells with PBA and the cell associated fluorescence was determined by analysis using a FACSCanto II™ instrument (BD Biosciences, NJ, USA) according to the manufacturer's directions.

Assay [4] concerns the target T3, human CD27 ECD with mutated amino acids 85, 87, 88 and 89 (A85S, R87A, N88A and G89A) (human, UniProt P26842 21-188).
T3 construct: also called mutated huCD27; mutated CD27 ECD
T3 chain: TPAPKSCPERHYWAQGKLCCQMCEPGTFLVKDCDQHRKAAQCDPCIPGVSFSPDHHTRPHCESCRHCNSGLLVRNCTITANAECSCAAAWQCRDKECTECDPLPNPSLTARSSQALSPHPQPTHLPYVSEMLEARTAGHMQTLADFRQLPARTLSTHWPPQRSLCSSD
The assay can be described thus: ELISA, plate coated with mutated CD27 ECD; supernatant of transiently transfected cells expressing mAb 2B3; anti-human IgG Fc-HRP. How it is done:
(§1) The full length wild type extracellular domain (ECD) of human CD27 or human CD27 with mutated amino acids 85, 87, 88, and 89 (A85S, R87A, N88A and G89A; see FIG. 34) were coated to a plate, then blocked. Supernatant from transiently transfected cells expressing mAb 2B3 was added and binding was detected with an HRP conjugated goat anti-human IgG Fc polyclonal antibody.

Assay [5] addresses T4, full length wild type extracellular domain (ECD) of human CD27 (human, UniProt P26842 21-188).
T4 construct: also called wild type huCD27; ECD of huCD27
T4 sequence: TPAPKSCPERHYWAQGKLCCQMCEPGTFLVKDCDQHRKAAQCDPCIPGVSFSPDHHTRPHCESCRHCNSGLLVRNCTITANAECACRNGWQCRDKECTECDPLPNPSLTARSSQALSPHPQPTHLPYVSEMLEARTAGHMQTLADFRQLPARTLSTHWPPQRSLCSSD
The assay can be described thus: ELISA, plate coated with wild type CD27 ECD; supernatant of cells expressing mAb 2B3; anti-human IgG Fc-HRP. How it is done: as §1

B1: CDX-527 (9H9×2B3 bispecific antibody: anti-PD-L1 IgG1 9H9 with anti-CD27 2B3 scFv) (bispecific antibody)
heavy: not shown
light: DIQMTQSPSTLSASVGDRVTITCRASQSISGWLAWYQQKPGKAPKLLIYKASSLESGVPSRFSGSGSGTEFTLTISSLQPDDFATYYCQQYYGSSRTFGQGTNVEIKRTVAAPSVFIFPPSDEQLKSGTASVVCLLNNFYPREAKVQWKVDNALQSGNSQESVTEQDSKDSTYSLSSTLTLSKADYEKHKVYACEVTHQGLSSPVTKSFNRGEC
For B1, in assay [1], the binding result is recorded as “binds”.

B2: anti-CD27 human monoclonal antibody 3C2 (antibody, V domains shown)
VH: QAQLQESGPGLVKPSETLSLTCTVSTGSISGYYWSWIRQPPGKGLEWIGYNYYSGSTNYNPSLKSRVTISIDTSKNQFSLKLNSVTAADTAVYYCARYPLIRGAFDYWGQGTLVTVSS
VL: not shown
notes: hybridoma supernatant (rat constant regions) in the cynomolgus CD27 ELISA
With B2, the binding result in assay [2] and in assay [3] was “binds” in each case.

B3: anti-CD27 human monoclonal antibody 2B3 (antibody, V domains shown)
VH: QVQLVQSGAEVKKPGASVKVSCKASGYTFTGYYIHWVRQAPGQGLEWMGWINPNSGGTNSAQKFQDRVTITRVTSINTAYMELSRLRSDDTAVYFCARDRLVLPWFGEIFPDAFDIWGQGTLVTVSS
VL: EIVMTQSPATLSVSPGERATLSCRASQSIRSNLAWYQQKPGQAPRLLIYGASTRATGIPARFSGSGSGTEFTLTISSLQSENFAVYYCQQYNNWPLTFGGGTKVEIK
notes: In the cynomolgus CD27 ELISA hybridoma supernatants were used (human V regions with rat constant regions); also called mAb 2B3
For the molecule B3, the binding result was “binds” in assay [2], “no binding” in assay [4], “binds” in assay [3] and “binds” in assay [5].
